Assay results published in the supplement of paper PMC9112550, “Optimization of the antimicrobial peptide Bac7 by deep mutational scanning” (BMC Biology, 2022).

System: Escherichia coli TOP10
Assay: shrunken log2 fold change of peptide-encoding DNA abundance (4.5 h post-induction vs induction); higher = less antimicrobial activity (less host growth inhibition)
Details: time post-induction: 4.5 h; library: site-saturation at positions 5, 18, 19, 20
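Also: peptides expressed intracellularly from a pBAD plasmid library in pooled LB shake-flask culture, induced with 0.3% L-arabinose, DNA abundance read by NGS, three biological replicates, DESeq2 with apeglm shrinkage.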

Row | Sequence | shrunken log2 fold change
1 | RRIRWRPPRLPRPRPRPFDCPRP | -0.0389
2 | RRIRWRPPRLPRPRPRPFDHPRP | 0.124
3 | RRIRWRPPRLPRPRPRPFGIPRP | -0.115
4 | RRIRWRPPRLPRPRPRPFIHPRP | -0.286
5 | RRIRWRPPRLPRPRPRPFIKPRP | -0.686
6 | RRIRWRPPRLPRPRPRPFLAPRP | -0.0712
7 | RRIRWRPPRLPRPRPRPFLSPRP | -0.0328
8 | RRIRWRPPRLPRPRPRPFLTPRP | 2.56
9 | RRIRWRPPRLPRPRPRPFMAPRP | -0.121
10 | RRIRWRPPRLPRPRPRPFMMPRP | -0.587
11 | RRIRWRPPRLPRPRPRPFMYPRP | -0.0072
12 | RRIRWRPPRLPRPRPRPFNYPRP | -0.533
13 | RRIRWRPPRLPRPRPRPFPFPRP | -0.28
14 | RRIRWRPPRLPRPRPRPFPQPRP | 0.0229
15 | RRIRWRPPRLPRPRPRPFQCPRP | -0.0406
16 | RRIRWRPPRLPRPRPRPFQIPRP | -0.25
17 | RRIRWRPPRLPRPRPRPFRMPRP | -0.122
18 | RRIRWRPPRLPRPRPRPFSNPRP | -0.258
19 | RRIRWRPPRLPRPRPRPFTPPRP | -0.0823
20 | RRIRWRPPRLPRPRPRPFVEPRP | -0.436
21 | RRIRWRPPRLPRPRPRPFWKPRP | -0.136
22 | RRIRWRPPRLPRPRPRPFWMPRP | -0.235
23 | RRIRWRPPRLPRPRPRPFYKPRP | -0.658
24 | RRIRWRPPRLPRPRPRPGCDPRP | 0.818
25 | RRIRWRPPRLPRPRPRPGDEPRP | 0.0372

Row | Sequence | shrunken log2 fold change
26 | RRIRWRPPRLPRPRPRPGFLPRP | 0.144
27 | RRIRWRPPRLPRPRPRPGGCPRP | 0.732
28 | RRIRWRPPRLPRPRPRPGILPRP | 0.0649
29 | RRIRWRPPRLPRPRPRPGKPPRP | 0.066
30 | RRIRWRPPRLPRPRPRPGKWPRP | 0.202
31 | RRIRWRPPRLPRPRPRPGLYPRP | -0.036
32 | RRIRWRPPRLPRPRPRPGMDPRP | 0.317
33 | RRIRWRPPRLPRPRPRPGNYPRP | -0.00177
34 | RRIRWRPPRLPRPRPRPGPCPRP | 0.101
35 | RRIRWRPPRLPRPRPRPGPQPRP | 0.938
36 | RRIRWRPPRLPRPRPRPGPRPRP | 0.514
37 | RRIRWRPPRLPRPRPRPGPWPRP | 0.318
38 | RRIRWRPPRLPRPRPRPGQDPRP | 0.334
39 | RRIRWRPPRLPRPRPRPGQRPRP | 0.153
40 | RRIRWRPPRLPRPRPRPGRLPRP | -0.0636
41 | RRIRWRPPRLPRPRPRPGTLPRP | -0.0473
42 | RRIRWRPPRLPRPRPRPGWDPRP | 0.657
43 | RRIRWRPPRLPRPRPRPGWHPRP | 0.298
44 | RRIRWRPPRLPRPRPRPGWPPRP | 0.644
45 | RRIRWRPPRLPRPRPRPHAAPRP | 0.45
46 | RRIRWRPPRLPRPRPRPHAWPRP | 0.0328
47 | RRIRWRPPRLPRPRPRPHAYPRP | -0.349
48 | RRIRWRPPRLPRPRPRPHCSPRP | -0.00908
49 | RRIRWRPPRLPRPRPRPHEFPRP | -0.0844
50 | RRIRWRPPRLPRPRPRPHEHPRP | 0.0185

Row | Sequence | shrunken log2 fold change
51 | RRIRWRPPRLPRPRPRPHEPPRP | 0.0371
52 | RRIRWRPPRLPRPRPRPHHYPRP | -0.952
53 | RRIRWRPPRLPRPRPRPHITPRP | -0.699
54 | RRIRWRPPRLPRPRPRPHKYPRP | -0.652
55 | RRIRWRPPRLPRPRPRPHMHPRP | -0.36
56 | RRIRWRPPRLPRPRPRPHNVPRP | -0.178
57 | RRIRWRPPRLPRPRPRPHNWPRP | 0.0898
58 | RRIRWRPPRLPRPRPRPHPRPRP | 0.451
59 | RRIRWRPPRLPRPRPRPHPWPRP | 0.0859
60 | RRIRWRPPRLPRPRPRPHRQPRP | -0.165
61 | RRIRWRPPRLPRPRPRPHSHPRP | -3.83e-05
62 | RRIRWRPPRLPRPRPRPHSMPRP | -0.216
63 | RRIRWRPPRLPRPRPRPHSPPRP | -0.09
64 | RRIRWRPPRLPRPRPRPHSQPRP | 0.0984
65 | RRIRWRPPRLPRPRPRPHSWPRP | 0.189
66 | RRIRWRPPRLPRPRPRPHTDPRP | -0.283
67 | RRIRWRPPRLPRPRPRPHTRPRP | -0.0595
68 | RRIRWRPPRLPRPRPRPHVGPRP | 0.0547
69 | RRIRWRPPRLPRPRPRPHWIPRP | -0.434
70 | RRIRWRPPRLPRPRPRPHWPPRP | 0.248
71 | RRIRWRPPRLPRPRPRPHYEPRP | -0.209
72 | RRIRWRPPRLPRPRPRPICMPRP | -0.242
73 | RRIRWRPPRLPRPRPRPICYPRP | -0.214
74 | RRIRWRPPRLPRPRPRPIFPPRP | 0.13
75 | RRIRWRPPRLPRPRPRPIFQPRP | -0.103

Row | Sequence | shrunken log2 fold change
76 | RRIRWRPPRLPRPRPRPIGHPRP | 0.0282
77 | RRIRWRPPRLPRPRPRPIGYPRP | -0.0135
78 | RRIRWRPPRLPRPRPRPIHLPRP | -0.0188
79 | RRIRWRPPRLPRPRPRPIIFPRP | -0.303
80 | RRIRWRPPRLPRPRPRPIILPRP | -0.283
81 | RRIRWRPPRLPRPRPRPIKAPRP | 0.00489
82 | RRIRWRPPRLPRPRPRPIKFPRP | -0.285
83 | RRIRWRPPRLPRPRPRPILFPRP | -0.456
84 | RRIRWRPPRLPRPRPRPIMGPRP | 0.0656
85 | RRIRWRPPRLPRPRPRPIMKPRP | -0.0768
86 | RRIRWRPPRLPRPRPRPIMNPRP | -0.473
87 | RRIRWRPPRLPRPRPRPIMVPRP | -0.0215
88 | RRIRWRPPRLPRPRPRPINNPRP | -0.659
89 | RRIRWRPPRLPRPRPRPIPHPRP | 0.0496
90 | RRIRWRPPRLPRPRPRPIQTPRP | -0.0178
91 | RRIRWRPPRLPRPRPRPIQVPRP | -0.0332
92 | RRIRWRPPRLPRPRPRPIRMPRP | 0.098
93 | RRIRWRPPRLPRPRPRPISFPRP | 0.00901
94 | RRIRWRPPRLPRPRPRPISHPRP | -0.24
95 | RRIRWRPPRLPRPRPRPITLPRP | 0.107
96 | RRIRWRPPRLPRPRPRPIVDPRP | -0.0254
97 | RRIRWRPPRLPRPRPRPIWYPRP | -0.149
98 | RRIRWRPPRLPRPRPRPIYDPRP | -0.227
99 | RRIRWRPPRLPRPRPRPKACPRP | 0.105
100 | RRIRWRPPRLPRPRPRPKAFPRP | -0.0585

Row | Sequence | shrunken log2 fold change
101 | RRIRWRPPRLPRPRPRPKAPPRP | 0.378
102 | RRIRWRPPRLPRPRPRPKCKPRP | 0.0552
103 | RRIRWRPPRLPRPRPRPKCRPRP | 0.294
104 | RRIRWRPPRLPRPRPRPKDFPRP | 0.0488
105 | RRIRWRPPRLPRPRPRPKDRPRP | 0.159
106 | RRIRWRPPRLPRPRPRPKEQPRP | 0.0237
107 | RRIRWRPPRLPRPRPRPKFYPRP | -0.24
108 | RRIRWRPPRLPRPRPRPKGDPRP | 0.0616
109 | RRIRWRPPRLPRPRPRPKGFPRP | 0.437
110 | RRIRWRPPRLPRPRPRPKICPRP | 0.357
111 | RRIRWRPPRLPRPRPRPKNQPRP | 0.123
112 | RRIRWRPPRLPRPRPRPKNWPRP | 0.188
113 | RRIRWRPPRLPRPRPRPKPAPRP | 0.605
114 | RRIRWRPPRLPRPRPRPKPWPRP | 0.515
115 | RRIRWRPPRLPRPRPRPKQVPRP | 0.285
116 | RRIRWRPPRLPRPRPRPKRAPRP | 0.797
117 | RRIRWRPPRLPRPRPRPKSSPRP | 0.000999
118 | RRIRWRPPRLPRPRPRPKSTPRP | 0.126
119 | RRIRWRPPRLPRPRPRPKSYPRP | 0.0188
120 | RRIRWRPPRLPRPRPRPKVCPRP | -0.0693
121 | RRIRWRPPRLPRPRPRPKWDPRP | 0.185
122 | RRIRWRPPRLPRPRPRPKYTPRP | -0.315
123 | RRIRWRPPRLPRPRPRPLACPRP | 0.206
124 | RRIRWRPPRLPRPRPRPLAIPRP | 0.0258
125 | RRIRWRPPRLPRPRPRPLALPRP | 0.362

Row | Sequence | shrunken log2 fold change
126 | RRIRWRPPRLPRPRPRPLASPRP | 0.26
127 | RRIRWRPPRLPRPRPRPLCQPRP | 0.0938
128 | RRIRWRPPRLPRPRPRPLDCPRP | -0.117
129 | RRIRWRPPRLPRPRPRPLEFPRP | 0.0696
130 | RRIRWRPPRLPRPRPRPLFPPRP | 0.0582
131 | RRIRWRPPRLPRPRPRPLHHPRP | -0.0749
132 | RRIRWRPPRLPRPRPRPLILPRP | -0.604
133 | RRIRWRPPRLPRPRPRPLITPRP | 0.0192
134 | RRIRWRPPRLPRPRPRPLIVPRP | 0.0513
135 | RRIRWRPPRLPRPRPRPLKFPRP | -0.121
136 | RRIRWRPPRLPRPRPRPLKQPRP | 0.206
137 | RRIRWRPPRLPRPRPRPLLAPRP | 1.03
138 | RRIRWRPPRLPRPRPRPLMEPRP | 0.835
139 | RRIRWRPPRLPRPRPRPLNIPRP | -0.211
140 | RRIRWRPPRLPRPRPRPLPKPRP | 0.12
141 | RRIRWRPPRLPRPRPRPLQAPRP | 0.721
142 | RRIRWRPPRLPRPRPRPLQGPRP | -0.21
143 | RRIRWRPPRLPRPRPRPLSKPRP | -0.0363
144 | RRIRWRPPRLPRPRPRPLSPPRP | -0.097
145 | RRIRWRPPRLPRPRPRPLWWPRP | 0.927
146 | RRIRWRPPRLPRPRPRPLYCPRP | -0.22
147 | RRIRWRPPRLPRPRPRPLYRPRP | -0.552
148 | RRIRWRPPRLPRPRPRPLYYPRP | -0.762
149 | RRIRWRPPRLPRPRPRPMCYPRP | -0.308
150 | RRIRWRPPRLPRPRPRPMDWPRP | 0.482
